This passage reports Kd results from PMC5452035 (2017).

For this test, the target named is T1, Rtt103p CID Q19A (Saccharomyces cerevisiae).
T1 chain: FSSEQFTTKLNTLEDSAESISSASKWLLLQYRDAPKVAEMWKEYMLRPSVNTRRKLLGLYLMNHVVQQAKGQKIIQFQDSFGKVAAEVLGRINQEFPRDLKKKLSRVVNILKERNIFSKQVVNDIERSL
The test is described as follows: FP.

The term Kd denotes the constant that tells how readily two partners part at equilibrium. A high value points to lower affinity.

Non-standard residues stand in square brackets, D forms with d. No end group written: not given here. pT = C[C@@H](OP(=O)(O)O)[C@H](N)C(=O)O; FAM = 5,6-carboxyfluorescein

{FAM}-PSYSP[pT]SPSYSPTSPS [FAM-PSYSP(pT)SPSYSPTSPS] yielded a Kd of 48 µM. That is a double-digit micromolar value.
